Experimental data as given in the supplement of paper PMC12042874.
± gives the uncertainty stated by the source.

Test: amyloid nucleation score (Sup35N fusion, yeast selection) (log enrichment); library NNK1; higher = more nucleation; inactive = no reads after selection
In short: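 Peptides of 20 random codons fused to Sup35N were expressed in psi-negative yeast, induced 24 hours with 100 μM copper sulfate, then grown 7 days at 30°C on medium lacking adenine and uracil. Input and output plasmid inserts were Illumina-sequenced. Nucleation score is the DiMSum log enrichment of output over input reads, centred on the mode score of non-aggregating sequences, excluding sequences with under 100 input reads. Random libraries had three technical output replicates.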

Substance	amyloid nucleation score
LNGWIVEGLNNADLTRRRWV	0.235 ± 0.6
LNICGIWGGVVSEGARNVFY	0.063 ± 0.33
LNLVRLYVTSKCSLDATSVI	-0.444 ± 1.2
LNNRE	0.805 ± 0.78
LNNYCCYIAKYVYWW	6.089 ± 0.044
LNRGYAGFSLN	-1.86 ± 1.1
LNRLSFLV	0.065 ± 1.2
LNRVLMTIWCTPMSICTYDC	3.89 ± 0.12
LNSGASMLWQTLSYPMSRVR	-0.506 ± 1.2
LNSIMQIQVWIFTLEMMSPM	-1.07 ± 0.98
LNTQVRVGDKVCLRIFARLL	0.944 ± 0.9
LNVNRWYTISL	0.972 ± 0.25
LNWVLFADLLWPR	0.212 ± 0.57
LPAGSDVCLY	3.23 ± 0.13
LPDIGCFPRTIGCMTQAECG	-0.381 ± 1
LPFSLFSLD	0.308 ± 0.42
LPHYNMLSPRIIRTLVVERF	0.694 ± 1.1
LPPARIFEGRSICYFVWYLP	0.232 ± 0.7
LPSNFCVKLSSTYYQVFG	-2.37 ± 1.8
LPSSSPMTRR	-0.837 ± 1.7
LPTIHICLRSAHTRWFA	-0.438 ± 0.87
LPVFELSHTHSVKSLDGNGQ	-0.308 ± 0.33
LQERWMAMGGGGQGVVWGFT	0.305 ± 0.79
LQGSVIYLNIKSLGEGVWLF	3.44 ± 0.17
LQIYCAPGFV	0.38 ± 1.2

Substance	amyloid nucleation score
LQKFMLV	0.638 ± 0.53
LQKIMQKISPIFRNRIYVRR	-0.327 ± 0.48
LQKRANNRRC	-0.372 ± 0.5
LQPNLMEGAMSSGGTEEVTV	-0.565 ± 1.4
LQTIYFLYE	2.25 ± 0.13
LQYGGQVISLNNR	1.97 ± 0.72
LRALSYWIPARTPIVEGYAK	-0.333 ± 0.32
LRCSLDGFFGLDWLANLILD	-0.115 ± 0.23
LREECKVAWYLNGDCVVYCK	inactive
LRENPQLGVVTGLTLGSDLP	0.19 ± 0.5
LRFPLARNHTGYQTGVTEFT	-0.526 ± 0.32
LRGEDNLLWCVISMTL	inactive
LRHMLIAAFSDWVKYWGCAR	0.194 ± 0.51
LRMKVINRNPWVKTLSFVLA	-0.297 ± 1.1
LRNVYMCVQWGFMVETGASC	3.35 ± 0.16
LRREVINWDQRFSFLKSFTW	2.89 ± 0.15
LRRLRTSYMLRAVLKLFLQP	0.956 ± 0.58
LRRLSMA	inactive
LRSCMRGGRKYRDS	-0.903 ± 0.58
LRSKFRCLSILVRMVIIDCF	0.457 ± 0.62
LRSNHWNHTCLHNIRGCS	3.42 ± 0.071
LRSSWRTSIWHTWLWPYGDW	0.287 ± 0.87
LRTCIVGKLNQTTEILCGSS	1.14 ± 0.73
LRTLPHYNV	0.596 ± 1.2
LRTMGISCDWETFDLDINKG	inactive

Substance	amyloid nucleation score
LRWYTQGMVLLEDRPCRCYN	-1.01 ± 0.41
LRYILFKNPSPNNIESL	-0.194 ± 0.53
LRYLGMMVRREKIEVINLNY	0.329 ± 1.4
LRYLQQWYST	2.67 ± 0.19
LSCQTPQSDEMSVAESAWAY	-1.18 ± 1.2
LSEKYTIPVLFHVLKIITGI	0.495 ± 0.45
LSFCDTQRMWSSDG	0.483 ± 0.85
LSGPCNFYQHSVSWCLCTYA	0.764 ± 0.88
LSGWRYMVKA	0.039 ± 0.41
LSHWAIVFVICGPRSKKGGS	-0.115 ± 1
LSHWHGCCKSHRYIQF	0.244 ± 0.3
LSIWFFVYVLVG	0.043 ± 0.78
LSNFLHCG	0.907 ± 0.4
LSNRVLEGFNSSWYISIRGF	-0.434 ± 1.7
LSPGYSHTN	-0.423 ± 0.6
LSPLNVKIDSSFVFYIIRLK	-0.178 ± 0.36
LSPSCCCFYVLGIVT	3.57 ± 0.081
LSQLN	-0.116 ± 0.26
LSRDHCKNLNLNP	-0.084 ± 1.1
LSRNVVGAFGSGHWRADRAA	0.256 ± 0.64
LSRPTYSRMHIWISCHLIVV	-0.707 ± 1.7
LSRSYYNQFLTDFKGSGTYM	-0.269 ± 0.64
LSSPLLS	0.66 ± 0.44
LSTGWESNLEGCCENWGGLK	-0.499 ± 0.29
LSTYTMLF	-0.168 ± 0.28

Substance	amyloid nucleation score
LSVGKKDS	-0.292 ± 0.23
LSVYA	0.612 ± 0.45
LSYCVIG	inactive
LSYKIKDT	0.626 ± 0.72
LSYSWADSAPLCCTPMRGRG	-0.324 ± 0.37
LTAIFSRIFNI	-0.997 ± 1.4
LTAYLRGTDSGPERSWRCAS	-0.209 ± 0.88
LTGSISD	1.17 ± 0.73
LTHWTQHMF	-0.37 ± 0.87
LTHYEFGTFFYKVWSNDRHK	3.35 ± 0.062
LTMGRKMVPYHLVSAMMGTV	-0.114 ± 0.57
LTMPYAI	inactive
LTNIYLVRMT	5.26 ± 0.071
LTNRSLIVRDWCTSTYPNPS	0.08 ± 0.53
LTNTGEYQLVSTIPQGRHVV	-0.222 ± 0.36
LTRKTVRKTSKNRIGLHHQT	inactive
LTSRIEWNGHAQSLWWLLSK	0.711 ± 0.21
LTSRVQCKNNCFSD	2.38 ± 0.55
LTYATDSFNRNFHILMHHVP	-0.711 ± 0.74
LTYLWFT	-0.095 ± 0.27
LVDCMALLNRYTSRIMDNC	-1.07 ± 0.8
LVDSNFCVNVCAGQSRRVYG	-0.712 ± 0.8
LVELLVWMAGWRCGDFLACR	0.867 ± 0.58
LVFKLLVLDHKSFGLLMVDS	-0.355 ± 0.63
LVFTCVGCWYQGKLWNE	4.25 ± 0.12

Substance	amyloid nucleation score
LVHMIAYAVGNLMCIRPLLI	-0.467 ± 0.43
LVHPQVSVGS	0.632 ± 0.74
LVHRRFMESDISGLCCALLW	-0.224 ± 1.4
LVHSFMW	0.876 ± 0.51
LVHTDTNLVF	inactive
LVHVGSQHKTFTPCSMEFLI	inactive
LVLFVTFGWCIDELRWMKRR	-0.51 ± 2.1
LVLGWRFIVPRVNLISLGFV	inactive
LVLVRFITPVDLAVMNGRLW	-0.927 ± 0.34
LVMRRKYLVNSNTLCSFGLH	inactive
LVMTYVFLDCI	-0.634 ± 1.1
LVNDPVFMGTWILSARICNV	0.323 ± 0.36
LVPCSWFYLDRSAQDSDCFS	-0.754 ± 1.1
LVPPGSYRSCLSHGRNCYSC	-0.203 ± 0.46
LVPRIRFWDYHNTELATHQK	5.13 ± 0.07
LVQESRHGLIRIRRVLLRIS	-0.252 ± 0.52
LVRGVHT	-0.446 ± 0.28
LVRTIVLNKRIMWMIQLCFK	0.86 ± 0.63
LVTFNDSQLSTWASLGLNS	-0.003 ± 0.46
LVVFISRVFTNDITFRFANI	0.675 ± 0.78
LVYPYESLFHFESGASH	0.32 ± 0.21
LVYSFRKTFSC	7.523 ± 0.047
LWCITYH	4.14 ± 0.1
LWCVLHDVGGGSYSLDRYTG	0.379 ± 0.83
LWFLIFSSKADAKVDRRILL	0.041 ± 0.47

Substance	amyloid nucleation score
LWGFSISYRKFVVSYGKAP	0.279 ± 0.31
LWGWGFSSEANPIGGRGILN	0.277 ± 0.53
LWLRLRFVCKYRV	1.9 ± 0.59
LWPFKSFGLVPCTV	-0.572 ± 0.69
LWPTGSRLSDG	-0.354 ± 0.51
LWVVRI	0.67 ± 0.85
LWVYSMWVQLTAGFNTVDVM	-0.707 ± 0.95
LWYCTSSNNCDCSAAIIVNT	4.19 ± 0.1
LYAALIIDYA	0.681 ± 0.66
LYDCCYIFTYYGSRYLTQKS	-0.091 ± 0.27
LYFKSSRCR	1.12 ± 0.52
LYFWFVCNFAEIDFTITL	3.05 ± 0.097
LYHSVSSVEDLQSDACTSCM	6.728 ± 0.046
LYIYWCSWVNGTFT	0.393 ± 0.33
LYLEGINVFSVMLHEVLHTG	-0.052 ± 0.43
LYLYNYRFAGLFFIDLETIW	-0.415 ± 0.57
LYMVWCACSFWDYITVFIFM	0.041 ± 0.65
LYMYRSYI	0.137 ± 0.42
LYPSISGFFCCKWGSVVNGL	inactive
LYQKHWVLSTALE	inactive
LYRWCGPCYLIWGVSWS	-0.199 ± 0.45
LYSDGLFANRTWLYF	1.01 ± 0.61
LYSFNGN	inactive
LYYIRVFRNSI	-0.751 ± 0.46
LYYNFKF	0.321 ± 0.33

Substance	amyloid nucleation score
LYYRKLVCWESGMA	0.318 ± 0.66
LYYYEQH	-0.388 ± 0.54
MADFFIHCFLSSYCEWFIWR	-0.283 ± 0.46
MAPLTMTSDLSHISKTGIWG	1.38 ± 0.9
MASHGDWGCSNRVFLFPHCR	-2.08 ± 1.9
MASPLSLGKAVALAKHKWGD	0.001 ± 1.1
MATSPFGERVPFIYLDHFCY	0.009 ± 0.42
MCDVERCRS	inactive
MCLLKGGSLVIVCGSGH	5.76 ± 0.061
MDFDRCYSFRGMR	-0.13 ± 0.47
MDFYVLPNCRQNGMLCERSC	0.508 ± 0.67
MDNCIISRYMFHMLVTSKVY	0.996 ± 0.52
MDPTEEE	-0.573 ± 1.4
MDSCCIMTMIKHELGLPYQP	3.77 ± 0.1
MDSRAVYYF	inactive
MDSTHSIPCHLNVFL	-0.475 ± 0.58
MDSYLSSNCKCDTLDVGGNE	-1.17 ± 1.6
MDTSL	-0.235 ± 0.82
MEIRYYFVFEEDGRVFEGGT	0.025 ± 0.43
MELTIAKSEMHVFKGGCVQL	-0.45 ± 0.57
MFAVMNGAVLSTPLDNVCRV	-0.581 ± 1.6
MFCIDSRAVAGMRDGRINLG	1.64 ± 0.21
MFFGWGT	1.19 ± 0.34
MFFLQCQMRLSLLVGNVLMR	-0.054 ± 0.56
MFHSYVSLGLCKW	0.371 ± 0.84
